Reference: US20190135908A1 (Novartis, published 2019)

T1: GDF15 mutant L294R (knuckle region), albumin fusion (human, UniProt Q99988 195-308)
T1 construct: not shown: albumin fusion partner
T1 chain: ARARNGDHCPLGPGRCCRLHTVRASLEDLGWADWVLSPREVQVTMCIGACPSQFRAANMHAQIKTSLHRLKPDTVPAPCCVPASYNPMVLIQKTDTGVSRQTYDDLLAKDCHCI

T2: GDF15 mutant I285R (knuckle region), albumin fusion (human, UniProt Q99988 195-308)
T2 construct: not shown: albumin fusion partner
T2 chain: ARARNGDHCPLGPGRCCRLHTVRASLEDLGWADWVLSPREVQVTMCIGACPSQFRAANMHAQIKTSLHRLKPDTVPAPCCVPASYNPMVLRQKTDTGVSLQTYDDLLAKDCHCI

T3: GDF15 mutant Q247R (wrist region), albumin fusion (human, UniProt Q99988 195-308)
T3 construct: not shown: albumin fusion partner
T3 chain: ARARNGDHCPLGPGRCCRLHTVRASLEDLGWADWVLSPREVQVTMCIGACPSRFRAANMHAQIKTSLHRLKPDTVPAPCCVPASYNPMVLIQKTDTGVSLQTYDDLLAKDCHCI

T4: GDF15 mutant W228R (wrist region), albumin fusion (human, UniProt Q99988 195-308)
T4 construct: not shown: albumin fusion partner
T4 chain: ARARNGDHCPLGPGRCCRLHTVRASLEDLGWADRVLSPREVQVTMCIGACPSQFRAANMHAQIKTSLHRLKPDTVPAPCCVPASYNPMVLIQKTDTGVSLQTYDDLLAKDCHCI

T5: GDF15 mutant M253R (wrist region), albumin fusion (human, UniProt Q99988 195-308)
T5 construct: not shown: albumin fusion partner
T5 chain: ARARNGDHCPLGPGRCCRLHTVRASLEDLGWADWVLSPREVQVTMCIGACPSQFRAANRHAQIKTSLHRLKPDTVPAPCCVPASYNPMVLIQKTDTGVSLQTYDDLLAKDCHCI

T6: GDF15 mutant D289R (finger tip region), albumin fusion (human, UniProt Q99988 195-308)
T6 construct: not shown: albumin fusion partner
T6 chain: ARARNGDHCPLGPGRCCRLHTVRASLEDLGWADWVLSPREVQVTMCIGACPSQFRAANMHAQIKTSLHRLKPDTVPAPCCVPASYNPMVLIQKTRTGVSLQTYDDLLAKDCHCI

T7: GDF15 mutant S278R (back-of-hand), albumin fusion (human, UniProt Q99988 195-308)
T7 construct: not shown: albumin fusion partner
T7 chain: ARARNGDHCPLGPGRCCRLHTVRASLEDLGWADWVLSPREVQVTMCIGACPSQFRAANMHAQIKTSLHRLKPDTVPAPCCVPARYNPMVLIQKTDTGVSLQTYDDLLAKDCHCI

T8: Human His-GDF15: HIS-tagged human GDF15 (human, UniProt Q99988 195-308)
T8 construct: not shown: His tag
T8 sequence: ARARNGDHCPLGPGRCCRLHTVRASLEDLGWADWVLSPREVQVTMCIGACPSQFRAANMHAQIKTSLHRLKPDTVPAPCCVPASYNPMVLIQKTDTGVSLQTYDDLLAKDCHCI

T9: Cyno His-GDF15: HIS-tagged cyno GDF15 (cynomolgus, UniProt G7PWZ3 197-308, limits assumed)
T9 construct: not shown: His tag
T9 sequence (looked up): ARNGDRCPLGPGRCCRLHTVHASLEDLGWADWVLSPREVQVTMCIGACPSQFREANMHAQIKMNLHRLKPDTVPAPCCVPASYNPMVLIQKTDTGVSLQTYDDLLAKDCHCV

T10: Mouse His-GDF15: HIS-tagged mouse GDF15 (mouse, UniProt Q9Z0J7 189-303)
T10 construct: not shown: His tag
T10 sequence (looked up): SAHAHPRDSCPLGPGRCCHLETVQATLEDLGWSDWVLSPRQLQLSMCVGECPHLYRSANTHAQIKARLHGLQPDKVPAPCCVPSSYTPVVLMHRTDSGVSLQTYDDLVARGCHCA

T11: Rat GDF15 HIS: HIS-tagged rat GDF15 (rat, UniProt Q9Z0J6 189-303, limits assumed)
T11 construct: also called Rat His-GDF15; not shown: His tag
T11 sequence (looked up): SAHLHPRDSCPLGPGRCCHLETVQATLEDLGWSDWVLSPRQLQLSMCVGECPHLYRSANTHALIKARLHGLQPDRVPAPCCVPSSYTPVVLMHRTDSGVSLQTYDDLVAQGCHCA

T12: Human GDF15 native: naturally produced human GDF15 purchased from Peprotech (human, UniProt Q99988 195-308)
T12 construct: Bought protein
T12 sequence: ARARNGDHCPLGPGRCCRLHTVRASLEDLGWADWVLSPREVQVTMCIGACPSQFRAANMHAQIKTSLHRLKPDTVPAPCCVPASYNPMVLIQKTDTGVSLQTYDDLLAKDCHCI

T13: GDF15 mutant S231R (knuckle region), albumin fusion (human, UniProt Q99988 195-308)
T13 construct: not shown: albumin fusion partner
T13 chain: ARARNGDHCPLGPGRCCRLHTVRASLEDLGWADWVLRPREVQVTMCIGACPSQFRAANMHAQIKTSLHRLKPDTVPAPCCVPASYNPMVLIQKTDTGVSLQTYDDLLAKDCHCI

T14: human GDF15 (target of the SET measurements; form not stated) (human, UniProt Q99988 195-308, limits assumed)
T14 sequence: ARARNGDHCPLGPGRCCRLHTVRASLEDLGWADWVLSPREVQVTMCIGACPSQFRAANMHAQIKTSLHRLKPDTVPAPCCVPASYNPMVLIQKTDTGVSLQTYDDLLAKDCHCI


Legend:
[1] = target: T1, GDF15 mutant L294R (knuckle region), …; experiment: direct ELISA on coated albumin-fusion GDF15 mutant
Procedure: (§1) Antibody epitope was determined by a direct ELISA method with GDF15 mutants. Albumin fusion GDF15 mutants were coated in wells of a 96-well EIA plate. After blocking, serially diluted anti-hGDF15 human antibodies were added to the GDF15-coated wells, followed by incubation at an ambient temperature for a few hours. Antibody binding was detected using an anti-human IgG antibody conjugated with horseradish peroxidase (HRP) and HRP substrate.

[2] = target: T2, GDF15 mutant I285R (knuckle region), …; experiment: direct ELISA on coated albumin-fusion GDF15 mutant
Procedure: as §1

[3] = target: T3, GDF15 mutant Q247R (wrist region), …; experiment: direct ELISA on coated albumin-fusion GDF15 variant
Procedure: as §1

[4] = target: T4, GDF15 mutant W228R (wrist region), …; experiment: as above
Procedure: as §1

[5] = target: T5, GDF15 mutant M253R (wrist region), …; experiment: as above
Procedure: as §1

[6] = target: T6, GDF15 mutant D289R (finger tip region), …; experiment: as above
Procedure: as §1

[7] = target: T7, GDF15 mutant S278R (back-of-hand), …; experiment: as above
Procedure: as §1

[8] = target: T8, Human His-GDF15: HIS-tagged human GDF15; experiment: Biacore SPR, IgG captured via anti-human Fc, GDF15 in flow
Procedure: (§2) Biacore assay is based on surface plasmon resonance (SPR) and were used to determine the binding affinity of antibodies to GDF15.
(§3) Anti-human Fc capture antibody was immobilized at 0.5 μg/ml on CMS chip in all four flow cells to achieve 8000 to 12,000 resonance units (RU) on the surface. Anti-hGDF15 antibodies were captured at flow rate […], at 0.25 to 0.5 μg/ml on the chip to get about 30 RU in flow cells 2, 3 and 4. GDF15 ligand was flowed at […] over captured antibodies and reference flow cell 1 for 600 and 1200 seconds contact time. Eight doses serially diluted 1 to 2, ranging from 20 to 0.156 nM, were tested. All cycles were repeated twice, regenerated between cycles with 3M MgCl₂ at flow […], 20 seconds contact time. Data were normalized by subtracting reference flow cell results. Data were fit with 1:1 Kinetics model with RI (bulk refractive index) set constant at 0.

[9] = target: T9, Cyno His-GDF15: HIS-tagged cyno GDF15; experiment: as above
Procedure: as §2, §3

[10] = target: T10, Mouse His-GDF15: HIS-tagged mouse GDF15; experiment: as above
Procedure: as §2, §3

[11] = target: T11, Rat GDF15 HIS: HIS-tagged rat GDF15; experiment: as above
Procedure: as §2, §3

[12] = target: T12, Human GDF15 native: naturally produced …; experiment: as above
Procedure: as §2, §3

[13] = target: T12, Human GDF15 native: naturally produced …; experiment: Biacore SPR (rounded from Table 2, human GDF15 native); Biacore, not SET
Procedure: as §3

[14] = target: T13, GDF15 mutant S231R (knuckle region), …; experiment: direct ELISA: albumin fusion GDF15 mutant coated on the plate, serially diluted antibody, anti-human IgG-HRP detection
Procedure: as §1

[15] = target: T12, Human GDF15 native: naturally produced …; experiment: Biacore SPR (rounded from Table 2, human GDF15 native)
Procedure: as §3

[16] = target: T14, human GDF15 (target of the SET …); experiment: solution equilibrium titration (SET); SET, not Biacore
[17] = target: T13, GDF15 mutant S231R (knuckle region), …; experiment: direct ELISA on coated albumin-fusion GDF15 mutant
Procedure: as §1

[18] = target: T1, GDF15 mutant L294R (knuckle region), …; experiment: direct ELISA: albumin fusion GDF15 mutant coated on the plate, serially diluted antibody, anti-human IgG-HRP detection
Procedure: as §1

Binder | binding result [2] | binding result [3] | binding result [4] | binding result [5] | binding result [6] | binding result [7] | Kd [8] | koff [8] | kon [8] | Kd [9] | koff [9] | kon [9] | Kd [10] | koff [10] | kon [10] | Kd [11] | koff [11] | kon [11] | Kd [12] | koff [12] | other results
ABGDF15-A (antibody, human IgG1, kappa, V domains shown, captured through anti-human Fc in the Biacore assay) VH: EVQLVQSGAEVKKPGESLKISCKGSGYSFTDYWISWVRQMPGKGLEWMGIIDPSGSYTIYSPSFQGQVTISADKSISTAYLQWSSLKASDTAMYYCARVSYYGGYFDIWGQGTLVTVSS VL: DIQMTQSPSSLSASVGDRVTITCRASQSISNNLNWYQQKPGKAPKLLIYAASNLQSGVPSRFSGSGSGTDFTLTISSLQPEDFATYYCFQLDHSPFTFGQGTKVEIKR | no binding | binds | binds | binds | binds | binds | 0.00262 nM | 0.000247 s⁻¹ | 9.42e+07 M⁻¹ s⁻¹ | 0.0134 nM | 0.000278 s⁻¹ | 2.07e+07 M⁻¹ s⁻¹ | 0.0568 nM | 0.000613 s⁻¹ | 1.08e+07 M⁻¹ s⁻¹ | 0.0232 nM | 0.000451 s⁻¹ | 1.95e+07 M⁻¹ s⁻¹ | 0.0113 nM | 0.000374 s⁻¹ | binding result [1]: no binding; kon [12]: 3.3e+07 M⁻¹ s⁻¹; Kd [13]: 0.011 nM; binding result [14]: binds
ABGDF15-G (antibody, human IgG1, kappa, V domains shown, captured through anti-human Fc in the Biacore assay) VH: QVQLVQSGAEVKKPGSSVKVSCKASGGTFSSHYINWVRQAPGQGLEWMGGIIPAFGGANYAQKFQGRVTITADESTSTAYMELSSLRSEDTAVYYCARFGSVYVSRYSSYYHMDVWGQGTLVTVSS VL: DIQMTQSPSSLSASVGDRVTITCRASQTIYRSLAWYQQKPGKAPKLLIYGASILQSGVPSRFSGSGSGTDFTLTISSLQPEDFATYYCLQRYTSPFTFGQGTKVEIKR | no binding | binds | binds | binds | binds | binds | 0.137 nM | 0.000533 s⁻¹ | 3.9e+06 M⁻¹ s⁻¹ | 0.12 nM | 0.000694 s⁻¹ | 5.79e+06 M⁻¹ s⁻¹ | 0.154 nM | 0.000343 s⁻¹ | 2.23e+06 M⁻¹ s⁻¹ | 0.138 nM | 0.000365 s⁻¹ | 2.63e+06 M⁻¹ s⁻¹ | 0.0882 nM | 0.000512 s⁻¹ | binding result [1]: no binding; Kd [15]: 0.088 nM; Kd [16]: 0.02 nM; kon [12]: 5.8e+06 M⁻¹ s⁻¹; binding result [14]: binds
ABGDF15-C (antibody, human IgG1, lambda, V domains shown, captured through anti-human Fc in the Biacore assay) VH: QVQLVQSGAEVKKPGSSVKVSCKASGGTFRSYAVSWVRQAPGQGLEWMGGIIPIFGTANYAQKFQGRVTITADESTSTAYMELSSLRSEDTAVYYCARGPIIMGYQFGLFDHWGQGTLVTVSS VL: SYELTQPPSVSVSPGQTASITCSGDNIGSHIVSWYQQKPGQSPVLVIYDKSNRPSGIPERFSGSNSGNTATLTISGTQAMDEADYYCQTWDSIGSVVFGGGTKLTVLG | no binding | binds | binds | binds | binds | binds | 0.0422 nM | 0.000468 s⁻¹ | 1.11e+07 M⁻¹ s⁻¹ | 0.065 nM | 0.000322 s⁻¹ | 4.96e+06 M⁻¹ s⁻¹ | 0.116 nM | 0.000505 s⁻¹ | 4.37e+06 M⁻¹ s⁻¹ | 0.0618 nM | 0.000483 s⁻¹ | 7.81e+06 M⁻¹ s⁻¹ | 0.0656 nM | 0.000388 s⁻¹ | binding result [17]: no binding; Kd [15]: 0.066 nM; kon [12]: 5.92e+06 M⁻¹ s⁻¹; binding result [18]: binds
